# Test results from IntAct's records for PubMed 21378754.
# Columns and labels:
# rab8a_human RAB8A [1] = molecular target: rab8a_human RAB8A (UniProt P61006)
# rab5a_human RAB5A = rab5a_human RAB5A (UniProt P20339)
# rab8a_human RAB8A [2] = molecular target: rab8a_human RAB8A (UniProt P61006); remark: listed apart in the source
# rab1b_human RAB1B = rab1b_human RAB1B (UniProt Q9H0U4)
# rab6a_human RAB6A = rab6a_human RAB6A (UniProt P20340)
# rab8a_human RAB8A [3] = molecular target: rab8a_human RAB8A (UniProt P61006); remark: listed apart in the source
# Sequence of rab8a_human RAB8A (P61006 whole entry): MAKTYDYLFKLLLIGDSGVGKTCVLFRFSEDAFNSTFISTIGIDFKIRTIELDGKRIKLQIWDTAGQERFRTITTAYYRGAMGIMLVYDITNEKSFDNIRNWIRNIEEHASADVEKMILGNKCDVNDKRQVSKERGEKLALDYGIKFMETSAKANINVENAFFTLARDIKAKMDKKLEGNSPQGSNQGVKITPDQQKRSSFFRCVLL
# Sequence of Inositol polyphosphate 5-phosphatase OCRL (Homo sapiens), Q01968 F668V (Q01968 whole entry F668V): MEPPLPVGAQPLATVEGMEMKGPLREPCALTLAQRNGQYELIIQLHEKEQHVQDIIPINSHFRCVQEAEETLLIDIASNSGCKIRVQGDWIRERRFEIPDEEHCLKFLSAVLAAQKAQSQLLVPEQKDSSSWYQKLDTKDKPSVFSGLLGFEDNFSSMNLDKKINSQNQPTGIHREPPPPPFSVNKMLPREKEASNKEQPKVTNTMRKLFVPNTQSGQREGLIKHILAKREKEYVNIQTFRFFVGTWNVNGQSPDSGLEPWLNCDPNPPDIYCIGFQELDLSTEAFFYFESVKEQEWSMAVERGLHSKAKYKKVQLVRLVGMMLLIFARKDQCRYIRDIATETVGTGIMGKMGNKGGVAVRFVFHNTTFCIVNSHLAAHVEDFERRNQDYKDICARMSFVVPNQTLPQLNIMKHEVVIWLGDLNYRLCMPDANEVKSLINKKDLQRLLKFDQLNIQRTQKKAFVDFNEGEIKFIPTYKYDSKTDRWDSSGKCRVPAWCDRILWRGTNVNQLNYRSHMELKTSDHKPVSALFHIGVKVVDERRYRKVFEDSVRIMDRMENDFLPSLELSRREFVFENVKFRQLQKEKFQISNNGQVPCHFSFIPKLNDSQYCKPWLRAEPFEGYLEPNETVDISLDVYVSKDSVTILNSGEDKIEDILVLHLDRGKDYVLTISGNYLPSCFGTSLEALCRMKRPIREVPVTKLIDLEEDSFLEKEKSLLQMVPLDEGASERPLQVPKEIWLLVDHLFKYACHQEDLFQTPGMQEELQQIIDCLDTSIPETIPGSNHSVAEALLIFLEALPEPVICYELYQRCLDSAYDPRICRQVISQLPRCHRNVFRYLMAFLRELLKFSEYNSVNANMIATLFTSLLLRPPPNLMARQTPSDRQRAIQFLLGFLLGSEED
# Sequence of Inositol polyphosphate 5-phosphatase OCRL (Homo sapiens), Q01968 F668A (Q01968 whole entry F668A): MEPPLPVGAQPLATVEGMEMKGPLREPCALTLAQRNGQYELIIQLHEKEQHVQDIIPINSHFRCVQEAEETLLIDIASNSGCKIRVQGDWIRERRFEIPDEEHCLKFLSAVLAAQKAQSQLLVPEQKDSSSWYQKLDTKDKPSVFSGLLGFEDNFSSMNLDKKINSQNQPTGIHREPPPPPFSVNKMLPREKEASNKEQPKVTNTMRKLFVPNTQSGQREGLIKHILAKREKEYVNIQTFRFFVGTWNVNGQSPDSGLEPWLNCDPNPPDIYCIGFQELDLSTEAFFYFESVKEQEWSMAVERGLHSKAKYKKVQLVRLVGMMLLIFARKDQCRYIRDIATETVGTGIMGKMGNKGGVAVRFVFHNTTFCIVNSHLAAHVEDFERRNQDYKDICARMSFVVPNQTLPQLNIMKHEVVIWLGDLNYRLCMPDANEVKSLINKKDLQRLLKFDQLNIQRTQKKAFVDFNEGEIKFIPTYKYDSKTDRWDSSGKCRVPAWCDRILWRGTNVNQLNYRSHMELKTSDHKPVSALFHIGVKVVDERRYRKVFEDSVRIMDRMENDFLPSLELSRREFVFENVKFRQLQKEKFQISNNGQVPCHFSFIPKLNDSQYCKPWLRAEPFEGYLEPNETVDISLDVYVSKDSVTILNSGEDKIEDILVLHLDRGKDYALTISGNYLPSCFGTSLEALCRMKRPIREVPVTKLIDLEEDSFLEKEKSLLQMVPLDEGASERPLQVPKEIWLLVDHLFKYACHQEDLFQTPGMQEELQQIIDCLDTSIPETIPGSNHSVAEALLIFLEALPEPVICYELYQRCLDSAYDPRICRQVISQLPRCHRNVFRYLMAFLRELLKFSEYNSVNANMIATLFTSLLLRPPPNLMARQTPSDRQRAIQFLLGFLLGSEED
# Sequence of rab5a_human RAB5A (P20339 whole entry): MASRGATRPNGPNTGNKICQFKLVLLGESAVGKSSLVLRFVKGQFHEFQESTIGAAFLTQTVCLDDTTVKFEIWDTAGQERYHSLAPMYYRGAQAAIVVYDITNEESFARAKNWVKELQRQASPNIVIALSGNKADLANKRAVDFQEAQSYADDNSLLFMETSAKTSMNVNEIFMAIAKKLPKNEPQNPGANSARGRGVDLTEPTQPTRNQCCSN
# Sequence of rab1b_human RAB1B (Q9H0U4 whole entry): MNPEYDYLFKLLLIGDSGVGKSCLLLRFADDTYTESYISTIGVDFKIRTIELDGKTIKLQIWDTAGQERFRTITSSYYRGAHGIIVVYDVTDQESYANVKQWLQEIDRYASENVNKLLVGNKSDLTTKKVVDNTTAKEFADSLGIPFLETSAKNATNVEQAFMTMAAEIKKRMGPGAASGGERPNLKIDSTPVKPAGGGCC
# Sequence of rab6a_human RAB6A (P20340 whole entry, looked up): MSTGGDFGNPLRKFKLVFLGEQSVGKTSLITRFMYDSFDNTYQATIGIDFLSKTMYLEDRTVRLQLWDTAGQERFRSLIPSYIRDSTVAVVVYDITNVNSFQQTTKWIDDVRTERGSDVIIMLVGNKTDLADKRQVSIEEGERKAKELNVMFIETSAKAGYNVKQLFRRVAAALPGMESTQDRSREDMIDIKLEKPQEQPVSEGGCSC
Substance,effect of a mutation on the interaction (rab8a_human RAB8A [1]),effect of a mutation on the interaction (rab5a_human RAB5A),effect of a mutation on the interaction (rab8a_human RAB8A [2]),effect of a mutation on the interaction (rab1b_human RAB1B),effect of a mutation on the interaction (rab6a_human RAB6A),effect of a mutation on the interaction (rab8a_human RAB8A [3])
"Inositol polyphosphate 5-phosphatase OCRL (Homo sapiens), Q01968 F668A",decreasing interaction,disrupting interaction,–,–,–,–
"Inositol polyphosphate 5-phosphatase OCRL (Homo sapiens), Q01968 F668V",–,–,decreasing interaction,disrupting interaction,disrupting interaction,disrupting interaction
